The data set deals with the molecule itself.

B1: Drp1 in HD mouse striatal cells (natural protein, UniProt Q8K1M6 1-736, looked up)
chain: MEALIPVINKLQDVFNTVGADIIQLPQIVVVGTQSSGKSSVLESLVGRDLLPRGTGVVTRRPLILQLVHVSPEDKRKTTGEENGVEAEEWGKFLHTKNKLYTDFDEIRQEIENETERISGNNKGVSPEPIHLKVFSPNVVNLTLVDLPGMTKVPVGDQPKDIELQIRELILRFISNPNSIILAVTAANTDMATSEALKISREVDPDGRRTLAVITKLDLMDAGTDAMDVLMGRVIPVKLGIIGVVNRSQLDINNKKSVTDSIRDEYAFLQKKYPSLANRNGTKYLARTLNRLLMHHIRDCLPELKTRINVLAAQYQSLLNSYGEPVDDKSATLLQLITKFATEYCNTIEGTAKYIETSELCGGARICYIFHETFGRTLESVDPLGGLNTIDILTAIRNATGPRPALFVPEVSFELLVKRQIKRLEEPSLRCVELVHEEMQRIIQHCSNYSTQELLRFPKLHDAIVEVVTCLLRKRLPVTNEMVHNLVAIELAYINTKHPDFADACGLMNNNIEEQRRNRLARELPSAGSRDKSSKVPSALAPASQEPPPAASAEADGKLIQDNRRETKNVPSAGGGIGDGGQEPTTGNWRGMLKTSKAEELLAEEKSKPIPIMPASPQKGHAVNLLDVPVPVARKLSAREQRDCEVIERLIKSYFLIVRKNIQDSVPKAVMHFLVNHVKDTLQSELVGQLYKSSLLDDLLTESEDMAQRRKEAADMLKALQGASQIIAEIRETHLW
B1: the stoichiometry N – broadly, a count of units in the complex or per binding partner – was determined as 4.
